Assay [1] concerns the target T1, human OPGbp[143-317] (human, UniProt O14788 143-317).
T1 sequence (looked up): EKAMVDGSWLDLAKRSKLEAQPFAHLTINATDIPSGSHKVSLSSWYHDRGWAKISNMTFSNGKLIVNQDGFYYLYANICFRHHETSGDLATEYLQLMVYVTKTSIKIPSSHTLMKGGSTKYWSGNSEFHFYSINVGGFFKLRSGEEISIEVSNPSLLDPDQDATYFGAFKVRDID
Description: cell-based or functional assay.

The target of assay [2] is T1, human OPGbp[143-317]. Description: SPR (BIAcore), immobilized OPGbp[143-317].
For assay [3], the target named is T2, FLAG-murine OPGbp[158-316]/DE (murine, UniProt O35235 158-316).
T2 construct: Produced in E. coli; also called FLAG-mouse OPGbp/DE; DE variant
T2 sequence: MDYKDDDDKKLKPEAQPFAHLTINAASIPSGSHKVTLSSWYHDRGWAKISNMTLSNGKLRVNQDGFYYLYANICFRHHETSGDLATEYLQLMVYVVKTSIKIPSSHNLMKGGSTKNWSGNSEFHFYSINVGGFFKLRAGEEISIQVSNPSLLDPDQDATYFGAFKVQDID
Description: EIA: plate coated with FLAG-murine OPGbp[158-316]/DE at 3 ug/ml, AT antibody in twofold steps 1.953-2000 ng/ml, goat anti-human IgG (Fc) conjugate, ABTS, absorbance at 405 nm. On the procedure:
(§1) After overnight incubation, the protein solutions were removed from the plate and 200 μl of 5% Chicken Serum (Gibco/BRL Cat# 16110-082) in PBST (PBS plus 0.05% Tween 20) was added to each well of the plate and plates were incubated at room temperature (RT) for 90 min with agitation. After incubation and blocking, plates were washed 4 times with 1×K-P wash solution in dH₂O (Cat#50-63-00, Kirkegaard & Perry Laboratories) and dried. […] Plates were incubated for three hours at room temperature with agitation, washed four times with 1×K-P wash solution and dried. Goat anti-human IgG (Fc) (Jackson ImmunoResearch, Cat# 109-036-098) was diluted 1:5000 in 5% Chicken Serum in PBST and 100 μl was added to each well. […] 100 μl of undiluted ABTS substrate (Kirkegaard & Perry; Cat# 50-66-00) was added to each well and the dish was incubated at room temperature until sufficient blue-green color developed. Color development was stopped by addition of 100 μl 1% SDS. Quantitation of color development was performed using a microtiter plate reader with detection at 405 nm.

For assay [4], the target named is T1, human OPGbp[143-317]. Description: EIA: plate coated with human OPGbp[143-317] at 3 ug/ml, AT antibody in twofold steps 1.953-2000 ng/ml, goat anti-human IgG (Fc) conjugate, ABTS, absorbance at 405 nm. As to the method: as §1

Substitutions are numbered along the chain they refer to.

The record followed here is patent US20030103978A1 (Amgen, published 2003).

B1: Fab “Y” (Fab, V domains shown)
VH: EVQLVQSGAEVRKPGASVKVSCKASGYDFSNYAIHWVRQAPGQRLEWMGWINAGNGNTKFSQKFQGRITVTRDTAASTAYMELRSLRSEDTAVYYCARDSSNMVRGIIIAYYFDYWGQGTLVTVSS
VL: EIVLTQSPATLSFSPGERATLSCRASQSVGSYLAWYQQRPGQAPRPLIYDATNRATGIPTRFSGSGSGTDFTLTISSLEPEDFATYYCQHRRTFGRGTKLEIKR
Take B1: the “murine bone marrow assay, TRAP in solution (pNPP), IC50” value in assay [1] was 212 nM.

B2: “AT” Fab S96A (Fab, V domains shown)
VH: B1 VH with E1Q, S100A
VL: EIVMTQSPSSLSASVGDRVTITCRASQSISRYLNWYQLKPGKAPRLLIYGASSLQSGVPSRFSGSGSGAEFTLTISSLQPEDIATYYCQHTRAFGQGTKVEIKR
modifications: The Fab carried a 6xHis tag. Its chain and terminus are not stated, so it is left out.
notes: His-tagged Fab
Consider B2, for which, in assay [2], the koff was 0.0072 s⁻¹.

B3: “AT” antibody (antibody, human IgG1, V domains shown)
VH: B1 VH with E1Q
VL: B2 VL
notes: Full-length antibody from CHO cells: Fab “AT” heavy chain variable region joined to human IgG1 CH1, hinge, CH2 and CH3; light chain of Fab “AT” (kappa); the mature antibodies are identical; also called “AT” Ab; “AT” Nb
B3: the results for the “EC50 (read off the curve)” value in assay [3] and in assay [4] were roughly 0.02 µg/mL and roughly 0.01 µg/mL, respectively.

B4: “AT” Fab N98A (Fab, V domains shown)
VH: B1 VH with E1Q, N102A
VL: B2 VL
modifications: The Fab carried a 6xHis tag. Its chain and terminus are not stated, so it is left out.
notes: His-tagged Fab
Consider B4, for which the koff in assay [2] came out at 0.012 s⁻¹.

B5: “AT” Fab D110A (Fab, V domains shown)
VH: B1 VH with E1Q, D114A
VL: B2 VL
notes: His-tagged Fab
As to B5, the koff in assay [2] was 0.127 s⁻¹.

B6: “AT” Fab S97A (Fab, V domains shown)
VH: B1 VH with E1Q, S101A
VL: B2 VL
modifications: The Fab carried a 6xHis tag. Its chain and terminus are not stated, so it is left out.
notes: His-tagged Fab
Consider B6, for which the koff in assay [2] worked out at 0.0062 s⁻¹.

B7: “AT” Fab Y111A (Fab, V domains shown)
VH: B1 VH with E1Q, Y115A
VL: B2 VL
notes: His-tagged Fab
Molecule B7 came in with a koff in assay [2] of 0.414 s⁻¹.

B8: “AT” Fab D95A (Fab, V domains shown)
VH: B1 VH with E1Q, D99A
VL: B2 VL
modifications: The Fab carried a 6xHis tag. Its chain and terminus are not stated, so it is left out.
notes: His-tagged Fab
Turning to B8, in assay [2], the binding result is “no binding”.
